Reference: article PMC3695229 (2013)
* marks the point of attachment. Biotin = O=C1N[C@H]2[C@H](CS[C@H]2CCCCC(=O)*)N1

T1: TGF-β2 (Homo sapiens, UniProt P61812)
T1 chain: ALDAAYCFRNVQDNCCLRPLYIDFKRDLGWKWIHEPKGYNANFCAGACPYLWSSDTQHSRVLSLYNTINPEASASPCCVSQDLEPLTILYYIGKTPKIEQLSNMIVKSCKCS


Molecular target: T1, TGF-β2
Test: SPR

Kd [nM] | Binder
8 | MIWTMMQNKKTFTKP [P1-mZP ZP-C peptide]
~190 | Biotin-DATMIWTMMQNKKTFTK-NH2 [P4-mZP 732-748]
~350 | Biotin-DASIIWAMMQNKKTFTK-NH2 [P5-hZP 734-750]
